Results: US8110402B2, “Metal abstraction peptide (MAP) tag and associated methods” (University of Kansas, priority 2008, dated 2012)
Where a SMILES comes first, the peptide text is derived from it. [ ]: non-standard residue; d: D form.

Columns and labels:
[1] = UV-Vis absorption spectroscopy of Ni coordination; format: binding
Experimental: UV-Vis absorption spectra were used to measure the concentration of the PRL-1 protein. Briefly, the concentrations of purified PRL-1 analogs were measured at 280 nm and calculated using an extinction coefficient of 19420 M^−1 cm^−1. Because of possible metal-protein absorption interferences in the high 200 nm region, the validity of the UV-Vis quantification method was confirmed by the Bradford method. Spectra of PRL-1 analogs at concentrations of 10, 5, 2.5, and 1.25 mg/mL were collected on a Cary 100 UV-Vis spectrophotometer from 800 to 200 nm. […] The resulting spectra were resolved and peak positions were evaluated using GRAMS/AI 7.00 software. Three methods were aimed at metal displacement. In the first, PRL-1-WT (e.g., wild type) samples were reduced using 20 mM β-mercaptoethanol (BME), and imidazole was added to a concentration of 10 mM. For […] protein samples, this corresponds to […] solution excess of BME to compete with the two C-terminal cysteine thiols and a 200-fold solution excess of imidazole to compete with the single C-terminal histidine imidazole side chain. New baselines were taken and the spectra recalculated. In the second method, baselines were recalculated for buffer containing 100 μM EDTA, and the spectrum for the PRL-1-WT sample that was exchanged ten million fold in 100 μM EDTA was recorded. […]

[2] = ICP-MS of metal bound to purified PRL-1 variants (Ni); format: binding; conditions: for Ni bound (ICP-MS): PRL-1 variants analyzed in parallel, Ni-IMAC purified
Experimental: (§1) ICP-MS was used to characterize the bound metal. Briefly, purified protein samples were digested in concentrated nitric acid in PFA microcentrifuge tubes (Savillex, #s 7240, 7241) at 68±1° C. for 16.5±0.7 hours. Based on protein quantification prior to digestion, the sample was then diluted to 1.5 μM in 20 mM ammonium bicarbonate, pH 8.2, filtered through a 0.2 μm nylon filter, and injected into a VG Elemental VGII+XS Inductively-Coupled Plasma-Mass Spectrometer fitted with a microconcentric nebulizer. A minimum of two separately prepared samples were analyzed for each protein variant. Each sample was scanned twice and standards were run before, between, and after each sample scan. Drift was monitored during washes between scans of both sample and standard injections.
To investigate our hypothesis that the chromophore arises from protein abstraction of the metal from the charged IMAC matrix, samples were subjected to ICP-MS for semi-quantitative analysis. As extensive washing is used to remove background metals, the values obtained from this method inherently underestimate the amount of metal bound, but can be used to assess the relative affinity of different metals for the protein. Additionally, to identify an endogenous metal ligand that may have been bound to PRL-1 during expression in the cells, ICP-MS was used to look for the presence of a transition metal from the first two rows in the periodic table as well as other common biologically relevant metals. […] On average 500 μM Ni-purified protein samples were digested in nitric acid for 16 h at 70° C. were determined to contain approximately 180 μM Ni, yielding a Ni to protein stoichiometry of 1:2.7+/−0.7. Zn was also detected in the Ni-purified samples at approximately 60 μM. […] Because ICP-MS analysis is conducted in a flow of Ar and the most abundant isotope of Ar has the same mass as Ca, Ca binding cannot be determined from the primary mass signal. Nonetheless, because a much higher amount of Ca was present in the cell culture media compared to Zn and yet the ICP-MS signal corresponds largely to zinc, the protein is unlikely to bind calcium.

[3] = ICP-MS of metal bound to purified PRL-1 (Zn); format: binding
Experimental: as §1
To investigate our hypothesis that the chromophore arises from protein abstraction of the metal from the charged IMAC matrix, samples were subjected to ICP-MS for semi-quantitative analysis. […] On average 500 μM Ni-purified protein samples were digested in nitric acid for 16 h at 70° C. were determined to contain approximately 180 μM Ni, yielding a Ni to protein stoichiometry of 1:2.7+/−0.7. Zn was also detected in the Ni-purified samples at approximately 60 μM. […]

[4] = Metal displacement from Ni-purified PRL-1 followed by UV-Vis (BME, imidazole, EDTA, guanidinium hydrochloride/heat); format: physicochemical
Experimental: UV-Vis absorption spectra were used to measure the concentration of the PRL-1 protein. Briefly, the concentrations of purified PRL-1 analogs were measured at 280 nm and calculated using an extinction coefficient of 19420 M^−1 cm^−1. Because of possible metal-protein absorption interferences in the high 200 nm region, the validity of the UV-Vis quantification method was confirmed by the Bradford method. Spectra of PRL-1 analogs at concentrations of 10, 5, 2.5, and 1.25 mg/mL were collected on a Cary 100 UV-Vis spectrophotometer from 800 to 200 nm. […] The resulting spectra were resolved and peak positions were evaluated using GRAMS/AI 7.00 software. Three methods were aimed at metal displacement. In the first, PRL-1-WT (e.g., wild type) samples were reduced using 20 mM β-mercaptoethanol (BME), and imidazole was added to a concentration of 10 mM. For 0.5 mM protein samples, this corresponds to 400-fold solution excess of BME to compete with the two C-terminal cysteine thiols and a 200-fold solution excess of imidazole to compete with the single C-terminal histidine imidazole side chain. New baselines were taken and the spectra recalculated. In the second method, baselines were recalculated for buffer containing 100 μM EDTA, and the spectrum for the PRL-1-WT sample that was exchanged ten million fold in 100 μM EDTA was recorded. Finally, 10 mg/mL protein samples were denatured in 5.6 M guanidinium hydrochloride and heated to 90° C., new baselines were taken, and the spectra were collected at 0, 2, 4 and 6 hrs.

[5] = Solubility of metal-free protein; format: physicochemical; conditions: metal-free (apo) protein

NC(=O)C[C@@H](N)C(=O)N[C@H](CS)C(=O)N[C@H](CS)C(=O)O [NCC] (H-[dN]-[dC]-[dC]-OH)
absorbance spectrum after incubation with metal-charged IMAC resin ([1]; synthetic tripeptides): mimics that observed for the peptide-metal complex embedded in PRL-1

B1: PRL-1: recombinant wild-type human PRL-1 protein containing the C-terminal NCC motif (protein, UniProt Q93096 1-170, looked up)
Protein tyrosine phosphatase …: MARMNRPAPVEVTYKNMRFLITHNPTNATLNKFIEELKKYGVTTIVRVCEATYDTTLVEKEGIHVLDWPFDDGAPPSNQIVDDWLSLVKIKFREEPGCCIAVHCVAGLGRAPVLVALALIEGGMKYEDAVQFIRQKRRGAFNSKQLLYLEKYRPKMRLRFKDSNGHRNNC
Ni bound (ICP-MS) [2]: approximately 120 μM
Ni content (ICP-MS) ([2]; on average 500 μM Ni-purified protein, nitric acid digest 16 h at 70° C.): approximately 180 μM
Zn detected (ICP-MS) ([3]; Ni-purified samples): approximately 60 μM
Zn present (ICP-MS) ([3]; purified using Zn-IMAC): 270 µM
loss of peaks at 318, 421 and 526 nm (Ni release) ([4]; 5.6 M guanidinium hydrochloride at 90° C.): only gradually disappear over 6 hrs
effect of 10 mM imidazole on absorption profile ([4]; Ni-purified): no effect
effect of ten million-fold exchange into 100 μM EDTA on spectrum ([4]; Ni-purified): little effect
effect of 20 mM BME on absorption profile ([4]; Ni-purified, pH 7.4): did not alter
reversibility of Ni binding ([4]; pH 7.4): irreversible

B2: Apo PRL-1: PRL-1 protein without bound metal (protein, UniProt Q93096 1-170, looked up)
Protein tyrosine phosphatase …: MARMNRPAPVEVTYKNMRFLITHNPTNATLNKFIEELKKYGVTTIVRVCEATYDTTLVEKEGIHVLDWPFDDGAPPSNQIVDDWLSLVKIKFREEPGCCIAVHCVAGLGRAPVLVALALIEGGMKYEDAVQFIRQKRRGAFNSKQLLYLEKYRPKMRLRFKDSNGHRNNC
modifications: apo form, no bound metal
solubility [5]: poorly soluble

B3: C170S: PRL-1 mutant with Cys170 replaced by Ser (protein, UniProt Q93096 1-170, looked up, variant C170S)
Protein tyrosine phosphatase …: MARMNRPAPVEVTYKNMRFLITHNPTNATLNKFIEELKKYGVTTIVRVCEATYDTTLVEKEGIHVLDWPFDDGAPPSNQIVDDWLSLVKIKFREEPGCCIAVHCVAGLGRAPVLVALALIEGGMKYEDAVQFIRQKRRGAFNSKQLLYLEKYRPKMRLRFKDSNGHRNNS
Ni bound (ICP-MS) [2]: No Ni was detected

B4: PRL-1-H166A: PRL-1 mutant with His166 of the NGH motif replaced by Ala (protein, UniProt Q93096 1-170, looked up, variant H166A)
Protein tyrosine phosphatase …: MARMNRPAPVEVTYKNMRFLITHNPTNATLNKFIEELKKYGVTTIVRVCEATYDTTLVEKEGIHVLDWPFDDGAPPSNQIVDDWLSLVKIKFREEPGCCIAVHCVAGLGRAPVLVALALIEGGMKYEDAVQFIRQKRRGAFNSKQLLYLEKYRPKMRLRFKDSNGARNNC
Ni bound (ICP-MS) [2]: ~60 µM
decrease in signal by absorption spectroscopy ([1]; relative to wild-type PRL-1, Ni-purified): 20%
